One experiment addresses T1, Full-length Snu66 (S. cerevisiae, UniProt Q12420 1-587).
T1 sequence: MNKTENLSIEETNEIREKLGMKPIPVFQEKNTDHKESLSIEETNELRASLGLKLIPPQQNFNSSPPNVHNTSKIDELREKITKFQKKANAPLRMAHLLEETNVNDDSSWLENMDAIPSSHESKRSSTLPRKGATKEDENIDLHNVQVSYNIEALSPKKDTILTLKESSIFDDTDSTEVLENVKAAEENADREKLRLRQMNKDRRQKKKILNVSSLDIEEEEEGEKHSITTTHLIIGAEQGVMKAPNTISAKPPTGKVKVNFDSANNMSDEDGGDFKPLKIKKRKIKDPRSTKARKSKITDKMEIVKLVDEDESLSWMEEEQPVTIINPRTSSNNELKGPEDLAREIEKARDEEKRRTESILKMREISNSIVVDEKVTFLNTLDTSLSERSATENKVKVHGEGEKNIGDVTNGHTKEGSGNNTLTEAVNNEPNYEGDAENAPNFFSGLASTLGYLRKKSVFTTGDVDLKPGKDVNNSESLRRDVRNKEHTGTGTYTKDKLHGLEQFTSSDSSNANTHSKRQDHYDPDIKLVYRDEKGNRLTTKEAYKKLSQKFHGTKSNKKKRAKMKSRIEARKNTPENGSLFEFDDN
Kind of experiment: pull-down.

Another experiment concerns the target ubiquitin (UniProt P0CG48 1-76). Put plainly: ITC.

The values that follow come from publication PMC3988567 (RNA, 2014).

Values joined by “and” are separate entries in the source; they are usually repeats but may differ in a detail not shown here. Identical values can stand only once.

B1: GST-Hub1 (natural protein)
chain: MIEVVVNDRLGKKVRVKCLAEDSVGDFKKVLSLQIGTQPNKIVLQKGGSVLKDHISLEDYEVHDQTNLELYYL
As for B1, the binding result with Full-length Snu66 is given as “binds”.

B2: ZnF-UBP domain from USP5 (domain or fragment)
chain: KQEVQAWDGEVRQVSKHAFSLKQLDNPARIPPCGWKCSKCDMRENLWLNLTDGSILCGRRYFDGSGGNNHAVEHYRETGYPLAVKLGTITPDGADVYSYDEDDMVLDPSLAEHLSHFGIDMLKMQKTDK
On to B2, for which, in the experiment with ubiquitin, the dissociation constant Kd – broadly, the equilibrium constant for the complex coming apart – was 2400 nM and 2300 nM.
